Test results from patent US20210324050A1 (VANDERBILT UNIVERSITY, published 2021).

T1: GII.4 Houston 2002 (ABY27560.1) VLPs (human norovirus GII.4 Houston 2002, UniProt P54635 1-539)
T1 construct: also called GII.4 Houston 2002 antigen; GII.4 Houston VLPs
T1 chain: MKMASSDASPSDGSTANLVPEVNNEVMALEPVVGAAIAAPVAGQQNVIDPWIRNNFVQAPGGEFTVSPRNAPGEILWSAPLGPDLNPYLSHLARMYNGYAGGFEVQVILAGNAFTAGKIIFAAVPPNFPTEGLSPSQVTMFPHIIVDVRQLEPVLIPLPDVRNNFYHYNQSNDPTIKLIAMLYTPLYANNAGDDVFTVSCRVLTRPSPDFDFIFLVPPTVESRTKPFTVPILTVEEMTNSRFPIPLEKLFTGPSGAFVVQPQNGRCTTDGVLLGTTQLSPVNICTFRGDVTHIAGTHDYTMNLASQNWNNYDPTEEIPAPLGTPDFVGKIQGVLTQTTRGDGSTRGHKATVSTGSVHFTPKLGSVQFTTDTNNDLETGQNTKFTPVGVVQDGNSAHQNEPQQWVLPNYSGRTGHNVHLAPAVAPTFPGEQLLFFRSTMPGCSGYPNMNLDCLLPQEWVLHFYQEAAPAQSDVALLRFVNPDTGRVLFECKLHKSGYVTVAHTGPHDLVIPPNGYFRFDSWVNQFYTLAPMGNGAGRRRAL

T2: GII.4 Sydney 2012 virus-like particles (VLPs), based on strain AFV08795.1 (human norovirus GII.4 Sydney 2012, UniProt P54635 1-538)
T2 construct: also called GII.4 VLPs
T2 chain: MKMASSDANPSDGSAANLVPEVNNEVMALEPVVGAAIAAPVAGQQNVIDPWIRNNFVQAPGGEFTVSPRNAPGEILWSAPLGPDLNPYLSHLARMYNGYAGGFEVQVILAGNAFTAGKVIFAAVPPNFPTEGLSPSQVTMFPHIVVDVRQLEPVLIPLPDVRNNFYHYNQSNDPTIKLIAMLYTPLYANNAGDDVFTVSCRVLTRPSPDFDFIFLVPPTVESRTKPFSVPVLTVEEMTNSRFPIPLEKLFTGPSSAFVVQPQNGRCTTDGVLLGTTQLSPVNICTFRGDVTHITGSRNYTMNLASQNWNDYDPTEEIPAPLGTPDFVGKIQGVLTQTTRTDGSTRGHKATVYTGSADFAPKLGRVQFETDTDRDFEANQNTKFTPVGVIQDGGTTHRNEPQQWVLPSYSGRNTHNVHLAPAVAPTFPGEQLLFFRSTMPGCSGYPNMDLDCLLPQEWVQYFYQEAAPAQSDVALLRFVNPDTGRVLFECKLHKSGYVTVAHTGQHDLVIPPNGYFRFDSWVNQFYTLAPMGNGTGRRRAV

B1: NORO-303 (antibody, V domains shown)
VH: QVQLVESGGGVVQPGRSLRLSCAASGFIFSSYAMHWVRQAPGKGLEWVAVMSYDGNNKYYADSVKGRFTISRDNSKNTLFLQMNSLRPEDTAVYYCARDCRVGWVFTYGMDVWGQGTLVTVSS
VL: QSALTQPPSASGSPGQSVTISCTGTSSDVGGYNYVSWYQQHPGKAPKLMMYEISKRPSGVPIRFSGSKSGNTASLTVSGLQAEDEADYYCSSYAGTYNCVVFGGGTKLTVL
B2: NORO-263 (antibody, V domains shown)
VH: QVQLVESGGGLVKPGGSLRLSCAASGFTLSDYYMSWIRQAPGKGLEWVAYISSSHTSTYYRDSVKGRFTISRDSAKKSLYLQMNSLRVEDTAIYYCARDWVGGRSAYSDHWGQGTLVTVSS
VL: SYELTQPPSVSVSPGQTARITCSGDALPRRPAFWYQQKSGQAPVLVMYDDSKRPSGIPERFSGSSSGTVATLTISGAQVEDEADYHCYSTDSSGKERVFGGGTKLTVL
B3: NORO-327A (antibody, V domains shown)
VH: QVQLEVSGGGLVKPGGSLRLSCAASGFTFTDYYMSWIRQAPGKGLEWVAYISGIMSSTKYADSVKGRFTISRDNGKNSVYLQMNSLTAEDTAVYYCARERVEPPSAVTDFWGQGTLVTVSS
VL: QSVLTQSPSVSGAPGQRVTISCTGTSSNIGAGYDVHWYQQFPGTAPKLLISHNTNRPSGVPDRFSGSKSGTSASLAITGLQAEDEADYYCQSFDSSLRGSRVFGGGTKLTVL
B4: NORO-315B (antibody, V domains shown)
VH: QVQLVESGGGLVKPGGSLRLSCVASGFTFSDYYMTWFRQTPGRGLEWLSYISAIGGYTEYADSVKSRFIISRDNGKKSLYLQMNSLRAEDSGVYYCAREDCHGTSCYSGDWGQGTLVTVSS
VL: QSVLTQPPSVSGAPGQRVTISCTGSSSNIGAGYDVHWYQQLPGTAPKLLIYHNTNRPSGVPDRFSGSKSGTSAYLTITGLQAEDEADYYCQSYDRSLSKSRVFSGGTKLTVL
B5: NORO-251A (antibody, V domains shown)
VH: QVQLVESGGGVVQPGRSLRLSCAASGFTFRSYGIHWVRQAPGKGLEWVALISYDGSSKYYADSVKGRFTISRDNSKNTLYLQMNSLRSEDTAVYYCAKVRLTSYSIGWFSFDYWGQGTLVTVSS
VL: QSVLTQPPSVSAAPGQKVTISCSGSSSNIANYYVSWYQQLPGRAPKLLIYDNNKRPSGIPDRISGSKSGTSATLGITGLQTGDEADYYCGTWDTSLSAWVFGGGTKLTVL
B6: NORO-256A (antibody, V domains shown)
VH: QVQLVESGGGVVQAGRSLRLSCAASGFTFRSYGMHWVRQAPGKGLEWVAIISYDGGSKYYADSVKGRFTISRDNSKNTLYLQMNSLRVEDTALYYCAKDFLRVYSYGWHSFDIWGLGTLVTVSS
VL: QSVLTQPPSVSAAPGQRVTISCSGSSSNIGTYYVSWYQHLPGTAPKLLIYDNDKRPSGIPDRFSASKSGTSATLDIAGLQTGDEADYYCGTWDLSLTAGWVFGGGTKLTVL
B7: NORO-278 (antibody, V domains shown)
VH: QVQLVESGGGVVQPGRSLRLSCAASGFTFSSYGMHWVRQAPGKGLEWVAVISYDGSNKYYADSVKGRFTISRDNSKNTLYLQMNSLRAEDTAVYYCAKVTIIAAADLLDYWGQGTLVTVSS
VL: QSVLTQPPSVSGAPGQRVTISCTGSSSNIGAGYDVHWYQQLPGTAPKLLIYGNSNRPSGVPDRFSGSKSGTSASLAITGLQAEDEADYYCQSYDSSLSGPVVFGGGTKLTVL
B8: NORO-123 (antibody, V domains shown)
VH: QVQLVESGGGVVQPGRSLRLSCSTSGFTFSQYPMHWVRQAPGKGLEWVALISYDGMNKYYADSVRGRFTISRDNSENTQYLQMNSLRGDDTAVYYCARVTGDCTGNRCSYWAYYYYGLDVWGQGTLVTVSS
VL: QSALTQPPSASGSPGQSVTISCTGTSSDVGGYKYVSWYQQHPGKAPKLMIYEVTRRPSGVPDRFSGSKSGNTAFLTVSGLQAEDEADYYCGSYAGSTTSGYVFGTGTKVIVL
B9: NORO-310A (antibody, V domains shown)
VH: EVQLVESGGGLVRPGESLRLSCVASGFSVSDNYMSWVRQAPGKGLQWVSVIYSGGTTFYTDSVKGRFTISRDKSKNTLFLQMNSLRAEDTAVYFCTRDPSQYYDSRGHYYQTFTPSFDSWGQGTLVTVSS
VL: DIQMTQSPSVMSASVGDRVTITCRASQDISDYLAWFQQKPGKVPKRLIYAASSLQNGVPSRFSGSGSGTEFTLTISSLQPEDFATYYCLQHDTYPLTFGGGTKVEIK
B10: NORO-273A (antibody, V domains shown)
VH: QVQLVQSGAEVKKPGASVKISCKASGYDFTSFPMHWVRLGPGQRLEWMGWISAANGNTKYSQKFQDRFTITRDTSASIVHMELSSLRSEDTAVYYCARGGYSSGLYRYSNYYYGMTVWGQGTLVTVSS
VL: DIVMTQTPLSLSVTPGQPASISCKSSESLLHNDRKTYLFWYLQKPGQPPQLLIFQVSNRFSGVPDRFSGSGSGTDFTLRISRVEAEDVGIYYCLQTTQLPLTFGGGTKVEIK
B11: NORO-232A.2 (antibody, V domains shown)
VH: QVQLKQWGAGLLKSSETLSLTCAFNGNSFGAFYWSWIRLSPGKGLEWIGEVNYLGGADYNPSLKSRVTMSADTSKRQFSLSLKSVTAADTGVYFCARGRPHDYSPGSYSRPRRYYGLDVWGQGTTVTVSS
VL: EIVLTQSPATLSLSPGDSATLSCRASQAVSTTYLAWYQQTRGQAPRLLIHGTYTRAIGIPDKFSGTGSGTDFTLTISGLAPEDFAVYYCQQYSSSPYTFGQGTKIEIT
B12: NORO-313.1 (antibody, V domains shown)
VH: QVQLVESGGGLVKPGGSLRLSCAASGFTFSDFYMSWIRQAPGKGLEWVGYISSIAGATNYADSVKGRFTISRDSSKRSLYLQMNSLRVEDTAVYYCARMGRLELERRPHYYYPLDVWGQGTLVTVSS
VL: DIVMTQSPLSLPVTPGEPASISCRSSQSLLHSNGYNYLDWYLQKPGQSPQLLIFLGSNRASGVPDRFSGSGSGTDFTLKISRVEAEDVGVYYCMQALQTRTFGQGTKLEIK
B13: NORO-246A (antibody, V domains shown)
VH: EVHLVESGGGLVKPGGSLRLSCAASGFTFSRYGMHWVRQAPGKGLEWVSSIVIRSDYKYYADSVKGRFTISRDNAKNSLYLQMNSLRADDTAVYYCARDLVEPGITPVGCDYWGRGTLVTVSS
VL: SNELTQAPSVSVSPGQTARITCFGDALANQYSYWYQRKPGQAPVLVIYKDSERPSGIPQRFSASNSGTTVTLTITGVQAEDEADYFCQSADSTGIYKVFGGGTKLTVL
B14: NORO-250B (antibody, V domains shown)
VH: QVQLVESGGGLVKPGGSLTLSCAASGFTFSDYYMNWIRQAPGKRLEWVSYISGIMSSTNYADSVKGRFTISRDTAKKSVYLQMNSLRAEDTAVYYCARATSQGATSYYFDSWGQGTLVTVSS
VL: QSVLTQPPSVSGAPGQRVTISCTGSSSNIGADYDVHWYQQLPGAAPRLLIYADINRPSGVPDRFSGSKSGTSASLAITGLQAEDEADYYCQSYDRSVSGSAVFGGGTKVTVL
B15: NORO-279A (antibody, V domains shown)
VH: QVQLVESGGGVVQPGRSLRLSCAASGFTFTKYGMHWVRQAPGKGLEWVAFIAYDGSVKYYGDSAKGRFAISRDNPKNTVYLQMNSLRAEDTAVYYCAKVEIHYYSNSLLGMDVWGQGTLVTVSS
VL: QSVLTQPPSASGTPGQRVTISCSGGNSNIGISYVYWYQHLPGTAPKLLISKNNLRPSGVPDRFSASKSGTSASLAISGLRSEDEAEYYCATLDINMTWVFGGGTKLTVL
B16: NORO-296A (antibody, V domains shown)
VH: QVQLVESGGGLVKPGGSLRLSCAASGFTFSEYYMSWVRQAPGKALEWVSYITSSFSSTSYADSVKGRFVISRDNAKNSLYLQMNSLRVEDTAVYYCARYGAEYGSRSFYFLDWGQGTLVTVSS
VL: QSVLTQPPSVSGAPEQRVTISCTGSSSNIGAGYDVHWYQVLPGIAPKLLIYDNNKRPSGVPDRFSGSKSGTSASLAITGLQAEDEADYYCQSYDSRLSSNVVFGGGTKLTVL

Experiments:
[1] = target: T1, GII.4 Houston 2002 (ABY27560.1) VLPs; experiment: ELISA on GII.4 Houston 2002 VLPs
[2] = target: T2, GII.4 Sydney 2012 virus-like particles …; experiment: indirect ELISA on coated GII.4 Sydney 2012 VLPs
[3] = target: GII.4 Sydney 2012 virus-like particles (VLPs), based on strain AFV08795.1 (human norovirus GII.4 Sydney 2012, UniProt P54635 1-538); experiment: indirect ELISA on coated GII.4 Sydney 2012 VLPs

| Binder | binding result [1] | EC50 [2] [µg/mL] | EC50 [3] [µg/mL] |
| --- | --- | --- | --- |
| B1 | binds | 0.5 | – |
| B2 | binds | 0.6 | – |
| B3 | – | – | 0.6 |
| B4 | binds | 0.7 | – |
| B5 | binds | 0.9 | – |
| B6 | binds | 0.9 | – |
| B7 | binds | 4 | – |
| B8 | binds | 5.4 | – |
| B9 | binds | 6.2 | – |
| B10 | binds | 0.2 | – |
| B11 | – | – | 0.3 |
| B12 | binds | – | – |
| B13 | – | – | 0.2 |
| B14 | binds | – | – |
| B15 | binds | 0.2 | – |
| B16 | binds | – | – |
